# From patent publication US20140044730A1 (Regeneron, published 2014)
# Where a chain is given by its changes, count along the chain named.
# B1: 316P(v2) (antibody, IgG4, V domains shown)
# VH: EVQLVESGGGLVQPGGSLRLSCAASGFTFNNYAMNWVRQAPGKGLDWVSTISGSGGTTNYADSVKGRFIISRDSSKHTLYLQMNSLRAEDTAVYYCAKDSNWGNFDLWGRGTLVTVSS
# VL: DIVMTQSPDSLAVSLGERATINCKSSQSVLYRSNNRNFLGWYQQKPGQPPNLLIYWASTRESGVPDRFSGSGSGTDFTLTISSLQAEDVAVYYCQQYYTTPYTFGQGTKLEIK
# notes: also called 316(v2)
# B2: VH-D108H (antibody, V domains shown)
# VH: EMQLVESGGGLVQPGGSLRLSCAASGFTFSSHWMKWVRQAPGKGLEWVANINQDGSEKYYVDSVKGRFTISRDNAKNSLFLQMNSLRAEDTAVYYCARDIVLMVYDMHYYYYGMDVWGQGTTVTVSS
# VL: not shown
# notes: His variant of 300N
# B3: 300N(v1) (antibody, IgG1, V domains shown)
# VH: B2 VH with H108D
# VL: not shown
# B4: VK-S57H (antibody, V domains shown)
# VH: B2 VH with H108D
# VL: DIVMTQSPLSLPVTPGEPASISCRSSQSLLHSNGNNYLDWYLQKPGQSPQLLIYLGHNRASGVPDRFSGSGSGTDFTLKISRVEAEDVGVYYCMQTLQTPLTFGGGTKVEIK
# notes: His variant of 300N
# B5: VK-Y37H (antibody, V domains shown)
# VH: B2 VH with H108D
# VL: not shown
# notes: His variant of 300N
# B6: VK-Q98H (antibody, V domains shown)
# VH: B2 VH with H108D
# VL: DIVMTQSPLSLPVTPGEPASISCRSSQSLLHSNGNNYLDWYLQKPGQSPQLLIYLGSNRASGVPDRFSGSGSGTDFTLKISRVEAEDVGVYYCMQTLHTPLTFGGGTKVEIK
# notes: His variant of 300N
# B7: VK-M94H (antibody, V domains shown)
# VH: B2 VH with H108D
# VL: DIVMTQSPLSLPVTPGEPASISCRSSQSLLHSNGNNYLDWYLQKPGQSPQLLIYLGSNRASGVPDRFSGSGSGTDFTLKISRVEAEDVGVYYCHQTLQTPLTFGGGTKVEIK
# notes: His variant of 300N
# B8: VK-L97H (antibody, V domains shown)
# VH: B2 VH with H108D
# VL: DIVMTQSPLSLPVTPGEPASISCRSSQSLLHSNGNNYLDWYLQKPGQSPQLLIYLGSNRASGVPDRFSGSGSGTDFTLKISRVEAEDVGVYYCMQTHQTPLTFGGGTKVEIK
# notes: His variant of 300N
# B9: VK-L55H (antibody, V domains shown)
# VH: B2 VH with H108D
# VL: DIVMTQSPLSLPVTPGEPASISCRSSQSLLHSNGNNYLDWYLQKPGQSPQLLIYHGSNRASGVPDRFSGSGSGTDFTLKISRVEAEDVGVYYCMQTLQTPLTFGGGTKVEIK
# notes: His variant of 300N
# B10: VK-N35H (antibody, V domains shown)
# VH: B2 VH with H108D
# VL: not shown
# notes: His variant of 300N
# B11: VK-L101H (antibody, V domains shown)
# VH: B2 VH with H108D
# VL: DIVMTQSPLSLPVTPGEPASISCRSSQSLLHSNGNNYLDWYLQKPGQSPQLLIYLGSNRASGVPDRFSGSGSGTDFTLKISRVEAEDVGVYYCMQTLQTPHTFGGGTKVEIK
# notes: His variant of 300N
# B12: VK-P100H (antibody, V domains shown)
# VH: B2 VH with H108D
# VL: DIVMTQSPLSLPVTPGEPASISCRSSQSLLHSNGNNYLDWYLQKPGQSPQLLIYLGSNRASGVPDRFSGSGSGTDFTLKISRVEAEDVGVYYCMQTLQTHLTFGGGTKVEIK
# notes: His variant of 300N
# B13: VH-V101H (antibody, V domains shown)
# VH: B2 VH with V101H, H108D
# VL: not shown
# notes: His variant of 300N
# B14: VH-V104H (antibody, V domains shown)
# VH: B2 VH with V104H, H108D
# VL: not shown
# notes: His variant of 300N
# B15: VK-Q95H (antibody, V domains shown)
# VH: B2 VH with H108D
# VL: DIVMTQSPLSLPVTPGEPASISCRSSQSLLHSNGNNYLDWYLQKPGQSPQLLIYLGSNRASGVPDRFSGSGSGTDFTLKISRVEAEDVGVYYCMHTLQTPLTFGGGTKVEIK
# notes: His variant of 300N
# B16: VK-T102H (antibody, V domains shown)
# VH: B2 VH with H108D
# VL: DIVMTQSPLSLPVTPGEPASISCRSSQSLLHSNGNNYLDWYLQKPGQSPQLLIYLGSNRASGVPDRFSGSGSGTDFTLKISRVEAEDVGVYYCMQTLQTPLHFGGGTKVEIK
# notes: His variant of 300N
# B17: VK-S28H (antibody, V domains shown)
# VH: B2 VH with H108D
# VL: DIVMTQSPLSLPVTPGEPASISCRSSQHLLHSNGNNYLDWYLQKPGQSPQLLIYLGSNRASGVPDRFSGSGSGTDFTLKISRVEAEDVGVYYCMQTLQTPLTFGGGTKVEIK
# notes: His variant of 300N
# B18: VK-N36H (antibody, V domains shown)
# VH: B2 VH with H108D
# VL: not shown
# notes: His variant of 300N
# B19: VH-M107H (antibody, V domains shown)
# VH: B2 VH with M107H, H108D
# VL: not shown
# notes: His variant of 300N
# B20: VH-Y112H (antibody, V domains shown)
# VH: B2 VH with H108D, Y112H
# VL: not shown
# notes: His variant of 300N
# B21: VK-Q27H (antibody, V domains shown)
# VH: B2 VH with H108D
# VL: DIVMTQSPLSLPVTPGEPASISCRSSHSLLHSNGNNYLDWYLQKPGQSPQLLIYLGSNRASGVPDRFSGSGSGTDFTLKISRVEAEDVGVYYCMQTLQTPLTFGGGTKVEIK
# notes: His variant of 300N
# B22: VK-T99H (antibody, V domains shown)
# VH: B2 VH with H108D
# VL: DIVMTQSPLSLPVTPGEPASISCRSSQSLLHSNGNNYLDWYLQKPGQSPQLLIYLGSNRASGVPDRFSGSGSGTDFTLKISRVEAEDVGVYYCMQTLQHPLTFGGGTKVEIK
# notes: His variant of 300N
# B23: VK-N33H (antibody, V domains shown)
# VH: B2 VH with H108D
# VL: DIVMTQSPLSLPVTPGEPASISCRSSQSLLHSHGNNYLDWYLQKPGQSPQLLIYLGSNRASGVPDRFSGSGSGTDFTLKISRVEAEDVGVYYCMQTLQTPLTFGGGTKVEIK
# notes: His variant of 300N
# Assays:
# [1] = biological target: T1, human PCSK9 with a C-terminal myc-myc-hexahistidine tag (human, UniProt Q8NBP7 31-692, limits assumed); assay: SPR 25C, purified mAb captured
# T1 construct: also called hPCSK9-mmH; hPCSK9-mmh; not shown: C-terminal myc-myc-hexahistidine tag
# [2] = biological target: T1, human PCSK9 with a C-terminal …; assay: SPR 25C pH 6.0, purified mAb captured
# Experimental: (§1) A Biacore CM4 sensor chip was derivatized with a monoclonal mouse anti-human Fc antibody to capture human antibodies. The histidine substitution variant anti-PCSK9 antibodies were captured onto the anti-human Fc sensor surface from culture medium after transient expression in Chinese hamster ovary (CHO) cells. […] Kinetic association (kₐ) and dissociation (kd) rate constants were determined by processing and fitting the data to a 1:1 binding model using Scrubber 2.0 curve fitting software. Binding dissociation equilibrium constants (KD) and dissociative half-lives (t_{1/2}) were calculated from the kinetic rate constants as: KD (M)=kd/kₐ; and t_{1/2} (min)=(In2/(60*kd).
# Also included in these experiments were several control/comparator antibodies. All measurements were taken at 25° C.
# [3] = biological target: T1, human PCSK9 with a C-terminal …; assay: SPR 25C pH 7.4, purified mAb captured
# Experimental: as §1
# All measurements were taken at 25° C.
# [4] = biological target: T1, human PCSK9 with a C-terminal …; assay: SPR 25C pH 7.2, mAb captured;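 also: biacore SPR, antibodies captured on anti-human Fc CM4 chip with PCSK9 flowed as analyte, rate constants from a one-to-one kinetic fit, KD and half-life derived from them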
# Experimental: as §1
# [5] = biological target: recombinant cynomolgus monkey PCSK9 with a C-terminal myc-myc hexahistidine tag (cynomolgus monkey, UniProt A8T662 31-692 (Macaca nemestrina entry), limits assumed); assay: cell-based or functional assay
# [6] = biological target: human PCSK9 with a C-terminal myc-myc hexahistidine tag and a D374Y mutation (human, UniProt Q8NBP7 31-692, limits assumed); assay: cell-based or functional assay
# [7] = biological target: T1, human PCSK9 with a C-terminal …; assay: SPR 25C, mAb captured;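 also: biacore CM4 surface bearing anti-human Fc antibody capturing the mAbs, PCSK9 binding and release rates fitted with a one-to-one model, KD and half-life derived from those rates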
# Experimental: as §1
# [8] = biological target: T1, human PCSK9 with a C-terminal …; assay: SPR 25C pH 5.75, mAb captured;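 also: biacore surface with anti-human Fc antibody capturing the antibodies, PCSK9 as analyte, one-to-one kinetic fit, KD as kd over ka, half-life derived from kd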
# Experimental: as §1
# [9] = biological target: T1, human PCSK9 with a C-terminal …; assay: blocking ELISA pH 7.2, 500 pM hPCSK9-mmH vs coated hLDLR EGFA-hFc, exp #1
# Text: The equilibrated sample solutions were then transferred to the LDLR EGFA-hFc coated plate prepared as described above.
# [10] = biological target: T1, human PCSK9 with a C-terminal …; assay: blocking ELISA, hPCSK9-mmH vs coated hLDLR EGFA-hFc
# Experimental: (§2) Briefly, hLDLR EGFA-hFc was coated at 2 μg/mL in PBS on a 96-well microtiter plate overnight at 4° C. followed by blocking with a solution of 0.5% (w/v) BSA in PBS.
# (§3) The equilibrated sample solutions were then transferred to a LDLR EGFA-hFc coated plate.
# [11] = biological target: T1, human PCSK9 with a C-terminal …; assay: cell-based or functional assay
# [12] = biological target: T1, human PCSK9 with a C-terminal …; assay: blocking ELISA pH 5.75, 500 pM hPCSK9-mmH vs coated hLDLR EGFA-hFc
# Experimental: as §2, §3
# [13] = biological target: T1, human PCSK9 with a C-terminal …; assay: blocking ELISA pH 7.2, 500 pM hPCSK9-mmH vs coated hLDLR EGFA-hFc
# Experimental: as §2, §3
Binder,Kd [4],t½ [4],KD ratio pH 5.75/pH 7.2 [7],t½ ratio pH 5.75/pH 7.2 [7],Kd [8],t½ [8],also measured
B1,,,,,,,KD ratio pH 6.0/pH 7.4 [1]: 0.41; ka ratio pH 6.0/pH 7.4 [1]: 1.25; kd ratio pH 6.0/pH 7.4 [1]: 0.51; t½ ratio pH 6.0/pH 7.4 [1]: 1.96; Kd [2]: 0.23 nM; koff [2]: 0.000149 s⁻¹; kon [2]: 649000 M⁻¹ s⁻¹; t½ [2]: 77.5 min; Kd [3]: 0.566 nM; koff [3]: 0.000292 s⁻¹; kon [3]: 517000 M⁻¹ s⁻¹; t½ [3]: 39.5 min
B2,2.69 nM,28 min,1.73,0.24,4.67 nM,7 min,"IC50, LDL uptake in HepG2 cells, 50 nM MfPCSK9-mmH [5]: 12.7 nM; IC50, LDL uptake in HepG2 cells, 2 nM hPCSK9-D374Y-mmH [6]: 2.6 nM; IC50 [9]: 0.334 nM"
B3,,,,,,,"KD ratio pH 6.0/pH 7.4 [1]: 2.33; ka ratio pH 6.0/pH 7.4 [1]: 1.85; kd ratio pH 6.0/pH 7.4 [1]: 4.33; t½ ratio pH 6.0/pH 7.4 [1]: 0.23; Kd [2]: 1.18 nM; koff [2]: 0.000304 s⁻¹; kon [2]: 257000 M⁻¹ s⁻¹; t½ [2]: 38 min; IC50 ratio (pH 5.75/pH 7.2) [10]: 1.4; IC50, LDL uptake in HepG2 cells, 100 nM hPCSK9-mmH [11]: 28 nM; IC50 [12]: 0.266 nM; Kd [3]: 0.507 nM; koff [3]: 7.03e-05 s⁻¹; kon [3]: 139000 M⁻¹ s⁻¹; t½ [3]: 164 min; IC50 [13]: 0.19 nM"
B4,0.948 nM,48 min,1.84,0.26,1.74 nM,12 min,
B5,61.2 nM,0 min,72.3,0.54,4420 nM,0.2 min,
B6,0.914 nM,49 min,0.88,0.41,0.805 nM,20 min,
B7,3.53 nM,29 min,3.21,0.23,11.3 nM,7 min,
B8,6.61 nM,45 min,1.94,0.18,12.8 nM,8 min,
B9,0.906 nM,66 min,2.95,0.29,2.68 nM,19 min,
B10,1.06 nM,48 min,1.98,0.29,2.09 nM,14 min,
B11,1.8 nM,33 min,1.84,0.25,3.3 nM,8 min,
B12,8.9 nM,4 min,1.44,0.1,12.8 nM,0.4 min,
B13,7.33 nM,25 min,1.43,0.14,10.5 nM,3 min,"IC50, LDL uptake in HepG2 cells, 50 nM MfPCSK9-mmH [5]: 17.2 nM; IC50, LDL uptake in HepG2 cells, 2 nM hPCSK9-D374Y-mmH [6]: 4.7 nM; IC50 [9]: 0.857 nM"
B14,5.6 nM,11 min,8.51,0.04,47.6 nM,0.4 min,"IC50, LDL uptake in HepG2 cells, 50 nM MfPCSK9-mmH [5]: 15.8 nM; IC50, LDL uptake in HepG2 cells, 2 nM hPCSK9-D374Y-mmH [6]: 4.7 nM; IC50 [9]: 0.331 nM"
B15,1.33 nM,27 min,1.48,0.23,1.97 nM,6 min,
B16,1.03 nM,49 min,1.17,0.33,1.21 nM,16 min,
B17,138 nM,0 min,0.06,22.2,7.63 nM,6 min,
B18,0.952 nM,42 min,1.61,0.24,1.54 nM,10 min,
B19,7.34 nM,13 min,4.02,0.02,29.5 nM,0.2 min,"IC50, LDL uptake in HepG2 cells, 50 nM MfPCSK9-mmH [5]: 15.9 nM; IC50, LDL uptake in HepG2 cells, 2 nM hPCSK9-D374Y-mmH [6]: 4.6 nM; IC50 [9]: 0.704 nM"
B20,12.3 nM,5 min,4.52,0.01,55.7 nM,0.04 min,"IC50, LDL uptake in HepG2 cells, 50 nM MfPCSK9-mmH [5]: 21.2 nM; IC50, LDL uptake in HepG2 cells, 2 nM hPCSK9-D374Y-mmH [6]: 4.7 nM; IC50 [9]: 0.506 nM"
B21,5.01 nM,9 min,0.57,0.42,2.85 nM,4 min,
B22,9.63 nM,5 min,1.25,0.1,12 nM,0.4 min,
B23,9.69 nM,2 min,38.1,0.12,369 nM,0.3 min,
